From patent US10973840B2, “Methods of sensitizing tumor cells to weak base chemotherapeutic drugs” (SOCPRA SCIENCES SANTÉ ET HUMAINES S.E.C., priority 2017, dated 2021)

Assays:
[1] = test system: HT-1080 cells; assay: Intracellular pH measurement (HPTS/SNARF-1) by confocal microscopy, HT-1080; type: cell-based, human; settings: HT-1080, expression of the peptide, 1% O2, 4 h
Experimental: The pH sensing ratiometric dyes SNARF-1 and HPTS (Life Technologies) were used simultaneously for pH measurement of both cytoplasmic (C-SNARF-1) and endosomal/lysosomal (HPTS) compartments as previously described^30. Briefly, cells were cultured in 35 mm petri dishes (BD Biosciences) and used at 50% confluence. For endocytic labeling, cells were incubated overnight with HPTS (1 mM), washed, followed by a 20-min incubation with SNARF-1 (5 μM) to label the cytoplasmic compartment. Living cells were analyzed using an Olympus Fluoview™ FV1000 confocal microscope. Fluorescence emissions of both pH-sensing probes were recorded and subsequently analyzed as described^30.

[2] = test system: MDA-MB-231 tumor xenografts; assay: Chorioallantoic membrane (CAM) xenograft assay, MDA-MB-231; type: in vivo, chick embryo; settings: NHE6^527-588-overexpressing MDA-MB-231 xenografts on CAM, 1 μM Dox
Experimental: (§1) Fertilized eggs from white leghorn chicken were obtained from Public Health Agency of Canada (Nepean, ON). Ethics approval was obtained from the Ethics Committee on Animal Research of the University of Sherbrooke and all experimental procedures involving embryos were conducted in accordance with the regulations of the Canadian Council on Animal Care. Eggs were incubated in an Ova-Easy egg incubator (Brinsea) at 37° C. with 60% humidity. At Day 3, eggs were cracked as described^67. At Day 9, HT-1080 and MDA-MB-231 cell suspensions (1×10^6 and 2×10^6 cells, respectively) were mixed (1:1) with growth factor reduced Matrigel (BD Biosciences) in a total volume of 20 μl. Cell grafts were placed on top of the CAM and eggs were returned to the incubator for 96 h until Day 13 (n>6 chick embryos per cell line). When mentioned, 50 μl of Dox were added topically to the formed tumors (Day 13 after tumor cell grafting). At Day 16, chick embryos were euthanatized by decapitation. Tumors were removed and tumor volumes were calculated using the formula: (Dd^2/3). For RNA quantification, tumors were immediately snap-frozen in liquid nitrogen and kept at −80° C. until RNA extraction using the Trizol reagent.
(§2) To determine whether these observations were of relevance to tumor therapy in vivo, the inventors used an ex ovo chorioallantoic membrane (CAM) xenograft model in live chicken embryos^40. MDA-MB-231 or HT-1080 cells, or cells expressing either the NHE6^527-588 competing fragment or its scrambled counterpart were inoculated onto the CAM of 9-day-old chick embryos. After allowing 3 days for cells to engraft, tumors were treated with Doxorubicin or PBS. Four days later, chick embryos were euthanized, and tumors were removed for analysis (FIG. 10A). To first ascertain that tumors implanted in CAM developed hypoxia, total mRNA was extracted from tumors generated by untransfected HT-1080 cells and gene expression of the hypoxic markers CA9, GLUT1 and MCT4 was measured by qPCR. […]

[3] = test system: NHE6-RACK1 interaction; assay: Co-immunoprecipitation of NHE6 with RACK1 in HT-1080; type: cell-based, human; settings: HT-1080, ectopic expression of the sequence, 1% O2, 4 h
Experimental: Cells were lysed on ice in NP-40-containing buffer (50 mM Tris-HCl pH 8.0, 150 mM NaCl, 1% NP-40, 5 mM EDTA, phosphatase and protease inhibitors). Cell lysates were centrifuged at 13,000 rpm at 4° C. and protein concentration determined using the BCA protein assay (Thermo Fisher Scientific). After a pre-clearing step with protein A/G-agarose beads (GE Healthcare), protein complexes were immunoprecipitated overnight at 4° C. Samples were incubated in SDS-loading buffer for 30 minutes at room temperature to avoid transmembrane protein aggregates upon heating in a boiling water bath. Proteins were separated by SDS-PAGE electrophoresis, transferred to a PVDF membrane and immunoblotting was performed as described, using anti-NHE6 (1:1000), anti-NHE9 (1:1000) anti-RACK1 (1:2000), anti-tubulin (1:5000), anti-actin (1:5000) anti-HA (1:1000), anti-PKC (1:200), anti-phospho PKC substrate (1:1000), anti-LAMP2 (1:200), anti-P-glycoprotein (1:200) and HRP-conjugated secondary antibodies (1/10 000)^66.

[4] = test system: HT-1080 cells; assay: Intracellular localization of Dox by confocal live-cell imaging, HT-1080; type: cell-based, human; settings: HT-1080, expression of the peptide, 1% O2, 4 h
Experimental: Cells were cultured in 25 mm-diameter glass coverslips (Thermo Fisher Scientific) and incubated under various conditions (as indicated in the FIG. legends). Cells were then incubated for 2 h in a medium containing Dox (2 μM). After the incubation period, cells were washed to remove excess Dox and left in drug-free media for 10 min. […] Coverslips were mounted on glass slides and placed on a 37° C. warmed stage of an Olympus Fluoview™ FV1000 (Olympus, Tokyo, Japan) confocal laser scanning microscope. Dox was excited with a green helium neon laser (543 nm) and emitted fluorescence intensity was measured. Images were acquired on the same day, typically from 10-20 cells of similar size from each experimental condition, using identical instrument settings.

[5] = test system: NHE6; assay: NHE6 localization (cell-surface biotinylation, EEA1 immunofluorescence) in HT-1080; type: cell-based, human; settings: HT-1080, expression of the peptide, 1% O2, 4 h
Experimental: Biotinylation steps were performed at […] Cells were grown on circular 15-mm diameter glass coverslips (Thermo Fisher Scientific) and incubated at 21% or 1% O2. Cells were then washed with PBS containing 1 mM CaCl2 and 0.5 mM MgCl2 (PBSCM) and incubated for 5 min with 0.3 mg/ml of EZ-Link Sulfo-NHS-SS-Biotin (Pierce) in PBSCM. Unreacted biotin was quenched using 100 mM glycine. Cells were fixed for 10 min at room temperature using 1% PFA in PBS. Prior to staining, cells were blocked with 5% of BSA for 1 h at room temperature. Biotinylated cells were stained with 5 μg/ml Streptavidin Texas Red (Invitrogen) for 1 h at 4° C. Coverslips were washed and mounted on a microscope slide using Vectashield mounting media (Vector labs).
Cultured cells were fixed with 1% PFA for 10 min at room temperature, permeabilized with saponin (0.05% in PBS) for 20 min, and blocked with 2% BSA in PBS for 30 min. Cells were then incubated with the appropriate primary and secondary antibodies as follows: anti-EEA1 (1/500), anti-Rab7 (1/500) and fluorophore-conjugated secondary antibodies (1/1000). Images were recorded using an Olympus Fluoview™ FV1000 confocal microscope using a 63× oil immersion objective.

[6] = test system: HT-1080 tumor xenografts; assay: Chorioallantoic membrane (CAM) xenograft assay, HT-1080; type: in vivo, chick embryo; settings: NHE6^527-588-overexpressing HT-1080 xenografts on CAM, 0.5 μM Dox
Experimental: as §1, §2

[7] = test system: HT-1080 overexpressing NHE6^527-588 peptide; assay: MTT cell viability assay in HT-1080 expressing NHE6^527-588 or scrambled peptide; type: cell-based, human; settings: HT-1080, overexpression of the fragment
Experimental: peGFP-N3-NHE6 was generously provided by Hiroshi Kanazawa (Osaka University, Japan). pcDNA3-HA/NHE6 was constructed from peGFP-N3-NHE6. For this, the entire NHE6 coding sequence was excised with BamHI and EcoRI restriction enzymes and cloned in pcDNA3-HA vector. pcDNA3-HA/NHE6^527-588 was designed from pcDNA3-HA/NHE6 using the following primers: […]
HT-1080 cells were stably transfected with Polyethylenimine (PEI, MirusBio) and positive cells were selected with Geneticin™ (G418) at 400 μg/mL. In the case of MDA-MB-231 cells, plasmids were transfected using Lipofectamine™ 2000 ([…]) and G418 was added to cell cultures at a concentration of 2 mg/mL.
Cells (5×10^3) were cultured in 96-well plates and pre-incubated under 21% O2 or 1% O2 for 4 h following the addition of drugs for 72 h. Cell viability was measured using the 3-(4,5-dimethylthiazol-2-yl)-2,5-diphenyltetrazolium bromide (MTT) dye (Life Technologies) according to manufacturer's instructions. Because hypoxic conditions may affect the reduction of MTT to formazan, incubation of all cell cultures with MTT were performed under normoxic conditions. Each experiment was performed in triplicate and at least three independent experiments were performed. Log-scale dose-response data were plotted on a graph and a three-parameter non-linear regression was applied to determine IC50 values. For calculation of the IC50s, both normoxic and hypoxic drug-treated samples were normalized with their untreated counterpart.
The middle portion (position 527-588) of the NHE6 cytoplasmic tail has previously been reported to interact with RACK1^31. Stable HT-1080 cells expressing the NHE6^527-588 fragment or a scrambled counterpart were generated.

B1: TKAESAWLFRMWYNFDHNYLKPLLTHSGPPLTTTLPACCGPIARCLTSPQAYENQEQLKDDD (protein)
chain: TKAESAWLFRMWYNFDHNYLKPLLTHSGPPLTTTLPACCGPIARCLTSPQAYENQEQLKDDD
notes: NHE6 cytoplasmic tail fragment 527-588, expressed in cells from a plasmid
hypoxia-induced intravesicular hyperacidification [1]: greatly impaired
tumor volume compared to xenografts overexpressing a control peptide [2]: small but significant decrease in tumor volume
hypoxia-induced interaction of NHE6 with RACK1 [3]: prevented
hypoxia-induced diminution in nuclear Dox and Dox accumulation within endosomes [4]: greatly impaired
hypoxia-induced NHE6 relocalization from endosomes to the plasma membrane [5]: greatly impaired
tumor volume compared to xenografts overexpressing a control peptide [6]: small but significant decrease in tumor volume
increase in drug (Dox) sensitivity ([7]; hypoxia): 2.8 fold
sensitivity of the cells to Dox ([7]; normoxic conditions): did not change
